Reference: PMC5624781
pKd: −log10 of the molar value.

Legend:
EEA1 (Homo sapiens) = EEA1 (Homo sapiens) (UniProt Q15075); details: cited from earlier work
GST-EEA1_(36-91) = GST-EEA1_(36-91) (UniProt Q15075); assay: BLI; BLItz system (ForteBio); 0.5 µM GST-Rabaptin5_(551-862) or GST-EEA1_(36-91) immobilised on anti-GST sensors; GppNHP-loaded Rab5 or mUbRab5 at several concentrations in solution; 50 mM Tris-HCl, 150 mM NaCl, 10 mM MgCl2, 1 mM GppNHP; global fit, Kd = koff/kon
GST-Rabaptin5_(551-862) = GST-Rabaptin5_(551-862) (UniProt Q15276); assay: as above

Substance | pKd (GST-EEA1_(36-91)) | pKd (GST-Rabaptin5_(551-862)) | also measured
Rab5 (from UniProt P20339) | – | – | pKd (EEA1 (Homo sapiens)): 5.62
Rab5 (unmodified Rab5a) (from UniProt P20339 1-215) (natural protein) | 5.24 | 5.10 | koff (GST-EEA1_(36-91)): 0.0026 s⁻¹; kon (GST-EEA1_(36-91)): 450 M⁻¹ s⁻¹; koff (GST-Rabaptin5_(551-862)): 0.0022 s⁻¹; kon (GST-Rabaptin5_(551-862)): 660 M⁻¹ s⁻¹
mUbRab5_(K116), chemically conjugated monoubiquitinated Rab5 (ubiquitin G76C disulfide-linked to Rab5 K116C) (from UniProt P0CG48 1-76) | 4.74 | 5.10 | –
mUbRab5_(K140), chemically conjugated monoubiquitinated Rab5 (ubiquitin G76C disulfide-linked to Rab5 K140C) (from UniProt P0CG48 1-76) | 3.97 | 4.42 | –
mUbRab5_(K165), chemically conjugated monoubiquitinated Rab5 (ubiquitin G76C disulfide-linked to Rab5 K165C) (from UniProt P0CG48 1-76) | 5.33 | – | –
